# Measured values taken from the DeepSol protein solubility set.
# Experiment: soluble on expression in E. coli; label from the status in PepcDB or PDB records
row,Sequence,soluble on expression in E. coli
1,MKNAETPVFKLVLFGPESSLGNALMVELLSRQHEVIAVVDDLNRHSPRPGLHFKIGGLGDAHQAEQGAAGGSAVIALLPALAPGDLPGQARLSEALVAGLARTTIRRLLLVGDFDVLDEPGKYSEVERECVAQVVDGLQRSALHWTLINAPQELAGLGMEHFRSTEGTLEPGLAEPLRRLSRIAAGMVDMLELDLHRSEHLNFVV,not soluble
2,MKNKLLFMMLTILGAPGIAAAAGYDLANSEYNFAVNELSKSSFNQAAIIGQAGTNNSAQLRQGGSKLLAVVAQEGSSNRAKIDQTGDYNLAYIDQAGSANDASISQGAYGNTAMIIQKGSGNKANITQYGTQKTAIVVQRQSQMAIRVTQR,not soluble
3,MKNLAIFDLDNTLINTDSDHAWPQYLIKKGLVDAAETEAQNEKFYRDYQNGCLDIDAFLKLHLAPLARYSKEELAEFHREFMAEYIIPHISPMQRMLVQSHQMAGDETLVISSTNEFIITPVCRLFGIANMIGTQLETGPDGRYTGNYIGTPSLKEGKITRLNQWLAERGETLESYGKTYFYSDSKNDLPLLRLVSEPVAVNPDAELEKEAKEKGWPVLNFK,not soluble
4,MKNLEKCILCGSHNIVPHWKNVRSYNVSKCLDCSFLFLHEIIDDHELENYYSQSYFMASYAKTENNLIDAANNPKITAEAKEYANLIKLHHPEAHNVGEIGCSWGYLLYNLQNFGYSAKGFELSKTTAEMGSKQLGINITSGFFETQYNQFDVLILRHVLEHVPDPQDLLEKIYDSIKKDGLFILEGPNLDSISSRLFGKNVSWVSPPDHISFPNFISLIMACEKLGFTCIHKSSRRGRGISIFHQALLNSVGLMFGGKEKAKVNLGGINEKPNNQQLSSLKSAALKIVDFLDFLSSPMQPFLKQALLEEEMLIIFKKLEHHHHHH,not soluble
5,MKNLVGRFMRYVTFDTQSKPKNHHCPSSTGQKVFAQALYEELLELGLSDVSLDDHGYVMAKLPSNVNYPVPAIGFIAHMDTSPDACGKHVKPQIVEDYQGGDIALGKGDEVLSPIQYPDLHLLHGYNLITTDGTTLLGADNKAGIAEIITAMEILLADPSIPHGDISIAFTPDEEIGRGANHFDVAKFAAQWAYTIDGGPIGELEYENFNAATATVVCHGVNVHPGTAKDKMVNAMHIAAQFILMMPENETPQHTEGYQGFYHLSGATMSVAKSELKYILRDFEAIGLQARQALMQAKVAELNQQLKKGRVEVSFEQSYSNMKEKVEPHPHIIELAKQAMVACDVEPKIKPIRGGTDGARLSFMGLPCPNIFTGGYNFHGIHEFITIEGMEAAVQVIVKLAEKTALHYRQ,not soluble
6,MKNQLGQLALEQAKTFGGKLEVQPKVDIKTKHDLSIAYTPGVASVSSAIAKDKTLAYDLTTKKNTVAVISDGTAVLGLGDIGPEAAMPVMEGKAALFKAFAGVDAIPIVLDTKDTEEIISIVKALAPTFGGINLEDISAPRCFEIEQRLIKECHIPVFHDDQHGTAIVVLAAIFNSLKLLKKSLDEVSIVVNGGGSAGLSITRKLLAAGATKVTVVDKFGIINEQEAAQLAPHHLDIAKVTNREFKSGTLEDALEGADIFIGVSAPGVLKAEWISKMAARPVIFAMANPIPEIYPDEALEAGAYIVGTGRSDFPNQINNVLAFPGIFRGALDARAKTITVEMQIAAAKGIASLVPDDALSTTNIIPDAFKEGVAEIVAKSVRSVVLKS,not soluble
7,MKNTTLYTYRDYFVIRGGKPLTGKVKISGAKNAALPIMFATILTEEPCTITNVPDLLDVRNTLLLLRELGAELEFLNNTVFINPSINSFITNQEIIRRMRASVLSLGPLLGRFGRAVVGLPGGCSIGARPIDQHLKFFKEAGADVEVREGYVYVNLKEKRRVHFKFDLVTVTGTENALLYLASVPEESILENIALEPEVMDLIEVLKKMGAHVKVEGRSAYVKGSENLKGFTHSVIPDRIEAGTFMVGAVLTDGEILLENARINHLRAVVEKLKLIGGEVVEENGNLRVFRKESLRACDIETQVYPGFPTDMQAQFMALLSVAKGKSRIKENIFEHRFHHAQELNRLGANITVRGNTAYVEGVERLYGSEVYSTDLRASASLVLAGLVAQGETVVRDVYHLDRGYEKLEEKLKKLGADIERVSEL,soluble
8,MKPILALLSLLALPVMAAEPTLYGRYENIKVLEIGQTFKAKMDTGALTASLSAKDIELFQRDGDDWVRFRLATKGADDKVYEHKVSRISKIKGRAEGDDEDDEGINPAKRPVVDLELCLGNKKRTVEVNLVDRSHFNFPLLIGAKALREFGAAINPARRYTADEPDC,not soluble
9,MKPKLAQWKELLAARHKKENDEEKEEEKPDGRPVTDVPYADVWREYGAKPYWFAGDYCLIRETVYPLDYQHGRYRLGALYEVHERWQEAPFSHPLSCRGFAVRDLFFFDTETMGLSSGAGNIMFLLGHARILGDFVTIRQHLLPYPGAEVALYQSFLSDVDYTTLVTYNGKAFDWPRLKTRHALVRNMVPKLPAFGHFDLYHAARRLWKDKLDSLRLSEVERHILHVERGDDVPGFLAPMMYKEFLQTPHPDRLMPVLRHNERDVLSLIALYIHLSVQLLEADRLADPKEQLAAARWFEAVGETAAARGVYEEASGKGAKEAQAAKWQLSLLYRKEKRYEEAALLWRDLLIHGNGYWKAKAGLELAKVYEHYFRDAAEAHRYAVMAYEAWRSLARMSRQHSEKEEAEWRRRLARLERKKNG,not soluble
10,MKPKTRLYYAERLEPVLAWLAARPDADADLHRLAELACLSPYYFHRVYRALLGETVHATVQRMRLARASVALAQGKGSLRQVADRAGYASEAAFSRAFSAQYGLPPGRYRAKRSSPFNPEELRMYPLTMEDFPGLSLAILAHQGDYQEIGNTFDRLALLAAIQDLVRDGMQPPPRYIGVYYDDPAQVARDALRSRAGVSLPPGTAAPAPFEPLDIPAMRCAVLEYTGPYSEIEAPYNWLFSQWLPASGQEPGDFPMFEEYLNDPKTTPAAQLKTRIYLPLA,not soluble
11,MKPMTQEPSTLYAKLLGETASITWTELQPFFAKGALLWVELPLDLIEVAEAVAENDAARVSAWLADGQVGKVSETKALELVETDPQLWAVVVAPWVLIQNRANV,not soluble
12,MKPRPQSDAVDNEGPTPLSKGRRHLAMRLDDAWLGFQTRLAIRRGRVETVIPYTGYGSTSWVRVLARIVRSDPRDAAGHTNPLQESMRGWRNFTSAPVAHASVQVTIDGTVHDVVADRGGVVDARIPVALDAGWHTITLRSGESETVEAPVEIVADDAVFGVVSDIDDTVMVTALPRPFLAAWNTFVLNEHARTPTPGMAVLYERIARTAPSAPVLYLSTGAWNVAPTLSRFLSRNLYPAGPKLLTDWGPTPDRWFRSGQEHKRTSLERLAEEFPNIKWLLVGDDGQHDEAIYSEFAQRHPASVRAIAIRQLSAGEAVLAGGRSKSGGQPTPGVPWIYAPDGAGMSAQLEELGIIRLEHHHHHH,not soluble
13,MKPVPTYVQDKDESTLMFSVCSLVRDQAKYDRLLESFERFGFTPDKAEFLAADNREGNQFHGFSWHKQMLPRCKGRYVIFCHEDVELVDRGYDDLVAAIEALEEADPKWLVAGVAGSPWRPLNHSVTAQALHISDVFGNDRRRGNVPCRVESLDECFLLMRRLKPVLNSYDMQGFHYYGADLCLQAEFLGGRAYAIDFHLHHYGRAIADENFHRLRQEMAQKYRRWFPGRILHCVTGRVALGGGWYEAR,soluble
14,MKQEVEKWRPFKHPDGDVRDLSFLDAHQVIYVQHHEDKEPLEYRFWVTYSLHCFTKDYEHQTNEEKLSLMYHAPKESRPFCQHRYNLARTHLKRTILALPESNVIHAGYGSYAVIEVDLDGGDKAFYFVVFRAFSEIFHHCLKLIEK,not soluble
15,MKQFLITGGTGMVGSQLVNKLKNRDVHITILTRSDKQSDDPKISYVNWSKDGWMSQVPDIDVVVNLAGATLNKRWTPSYKQLIMTSRIQSTQSLVDLFSQREHKPEVLFNASAMGYYPPSLYHTYTEKYQTHPFDFLSDVVYQWERFAKRFESFGTRVVLGRFSMILSNDGGALQTMKLPYKFFVGGKLGSGFQWYSWIHINDLVRAILFTIDNPNAKGPFNMAAPIAERQNLFGYTLARVMHRPHETWVPSFLMRLALGEMSTVVLDTQKVLPNKLDALGFTFNYSNLKIAFEDLIDALEHHHHHH,not soluble
16,MKQLTVEDAKQIELEILDYIDTLCKKHNINYIINYGTLIGAVRHEGFIPWDDDIDLSMPREDYQRFINIFQKEKSKYKLLSLETDKNYFNNFIKITDSTTKIIDTRNTKTYESGIFIDIFPIDRFDDPKVIDTCYKLESFKLLSFSKHKNIVYKDSLLKDWIRTAFWLLLRPVSPRYFANKIEKEIQKYSRENGQYMAFIPSKFKEKEVFPSGTFDKTIDLPFENLSLPAPEKFDTILTQFYGLEHHHHHH,not soluble
